Laboratory results published in article PMC7948760, “Regulation of factor V and factor V-short by TFPIα: Relationship between B-domain proteolysis and binding” (The Journal of Biological Chemistry, 2021).
Ends that are not written are not given here.

T1: FV-short-RQ∗ (FV-short-RQ precleaved at Arg709 with thrombin) (human, UniProt P12259 29-737; P12259 738-2224, Δ756–1458 | Arg^1545 replaced with Gln)
T1 construct: coagulation factor V heavy chain (HC), released by cleavage at Arg709; coagulation factor V, rest of the shortened B-domain with AR2 joined to the light chain; also called FV-short cleaved at Arg709; source: FV-short-RQ (BHK cells, purified), 300 nM incubated with 2 nM thrombin 30 min at 37 °C, quenched with hirudin
T1 sequence (looked up) 1: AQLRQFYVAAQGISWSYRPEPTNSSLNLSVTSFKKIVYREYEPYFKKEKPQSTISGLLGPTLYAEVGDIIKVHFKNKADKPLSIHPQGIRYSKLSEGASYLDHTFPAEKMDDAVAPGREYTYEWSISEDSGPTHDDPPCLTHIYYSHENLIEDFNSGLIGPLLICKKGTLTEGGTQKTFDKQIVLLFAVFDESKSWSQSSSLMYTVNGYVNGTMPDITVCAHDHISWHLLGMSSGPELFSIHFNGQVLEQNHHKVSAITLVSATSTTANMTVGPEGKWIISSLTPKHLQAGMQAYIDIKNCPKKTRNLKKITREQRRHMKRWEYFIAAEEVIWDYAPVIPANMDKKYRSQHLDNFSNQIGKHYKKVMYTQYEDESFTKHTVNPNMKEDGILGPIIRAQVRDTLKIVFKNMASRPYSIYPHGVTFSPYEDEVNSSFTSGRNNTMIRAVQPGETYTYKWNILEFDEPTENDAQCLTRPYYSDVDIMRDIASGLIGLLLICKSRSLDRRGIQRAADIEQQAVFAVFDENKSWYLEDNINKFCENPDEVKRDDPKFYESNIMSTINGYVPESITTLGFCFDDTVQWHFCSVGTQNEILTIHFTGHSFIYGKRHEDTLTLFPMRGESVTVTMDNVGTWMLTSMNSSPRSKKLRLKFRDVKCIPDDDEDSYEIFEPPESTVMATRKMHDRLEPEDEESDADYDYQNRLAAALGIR
T1 sequence (looked up) 2: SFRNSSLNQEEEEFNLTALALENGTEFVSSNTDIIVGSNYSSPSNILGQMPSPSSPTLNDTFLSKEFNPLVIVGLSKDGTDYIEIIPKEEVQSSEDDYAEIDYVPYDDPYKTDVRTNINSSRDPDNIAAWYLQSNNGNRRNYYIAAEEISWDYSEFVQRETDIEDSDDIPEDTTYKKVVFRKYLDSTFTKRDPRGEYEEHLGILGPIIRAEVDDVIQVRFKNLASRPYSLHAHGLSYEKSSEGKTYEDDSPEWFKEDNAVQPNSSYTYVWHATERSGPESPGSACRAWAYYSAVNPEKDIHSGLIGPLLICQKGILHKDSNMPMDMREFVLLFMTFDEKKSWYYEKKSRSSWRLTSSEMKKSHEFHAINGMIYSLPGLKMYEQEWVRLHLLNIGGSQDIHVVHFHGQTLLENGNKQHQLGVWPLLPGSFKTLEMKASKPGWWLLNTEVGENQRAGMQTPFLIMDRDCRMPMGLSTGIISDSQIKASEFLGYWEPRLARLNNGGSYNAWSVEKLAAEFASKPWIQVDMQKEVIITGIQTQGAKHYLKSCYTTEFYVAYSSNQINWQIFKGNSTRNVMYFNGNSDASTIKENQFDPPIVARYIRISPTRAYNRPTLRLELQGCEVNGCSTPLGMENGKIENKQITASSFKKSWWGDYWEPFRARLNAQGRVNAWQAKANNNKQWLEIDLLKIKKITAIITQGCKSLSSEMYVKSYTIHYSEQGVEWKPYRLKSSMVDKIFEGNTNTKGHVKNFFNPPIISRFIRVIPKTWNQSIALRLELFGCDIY

T2: activated factor V (FVa) (human, UniProt P12259 29-737; P12259 1574-2224)
T2 construct: coagulation factor V heavy chain (HC; domains A1-A2); coagulation factor V light chain (LC; domains A3-C1-C2); source: prepared by treatment of FV-short (BHK cells) with thrombin, purified
T2 sequence (looked up) 1: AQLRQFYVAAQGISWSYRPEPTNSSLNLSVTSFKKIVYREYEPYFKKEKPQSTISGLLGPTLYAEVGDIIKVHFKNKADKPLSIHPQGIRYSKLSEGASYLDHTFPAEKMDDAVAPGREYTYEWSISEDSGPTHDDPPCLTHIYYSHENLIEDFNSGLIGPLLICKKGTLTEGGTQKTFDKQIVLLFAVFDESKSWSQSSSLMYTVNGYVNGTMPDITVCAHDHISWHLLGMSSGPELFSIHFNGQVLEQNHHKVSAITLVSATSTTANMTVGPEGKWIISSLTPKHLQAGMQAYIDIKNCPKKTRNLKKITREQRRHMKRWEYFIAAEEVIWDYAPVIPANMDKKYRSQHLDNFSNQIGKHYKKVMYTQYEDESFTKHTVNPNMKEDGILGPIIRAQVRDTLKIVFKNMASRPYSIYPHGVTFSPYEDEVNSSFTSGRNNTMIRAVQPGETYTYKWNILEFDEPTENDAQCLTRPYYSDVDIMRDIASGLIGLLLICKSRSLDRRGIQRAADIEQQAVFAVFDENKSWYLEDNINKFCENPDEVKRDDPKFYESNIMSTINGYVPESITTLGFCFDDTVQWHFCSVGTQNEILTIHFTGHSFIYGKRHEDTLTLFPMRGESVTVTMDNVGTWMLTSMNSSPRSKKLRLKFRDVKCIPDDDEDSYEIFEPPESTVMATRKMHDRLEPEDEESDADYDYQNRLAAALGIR
T2 sequence (looked up) 2: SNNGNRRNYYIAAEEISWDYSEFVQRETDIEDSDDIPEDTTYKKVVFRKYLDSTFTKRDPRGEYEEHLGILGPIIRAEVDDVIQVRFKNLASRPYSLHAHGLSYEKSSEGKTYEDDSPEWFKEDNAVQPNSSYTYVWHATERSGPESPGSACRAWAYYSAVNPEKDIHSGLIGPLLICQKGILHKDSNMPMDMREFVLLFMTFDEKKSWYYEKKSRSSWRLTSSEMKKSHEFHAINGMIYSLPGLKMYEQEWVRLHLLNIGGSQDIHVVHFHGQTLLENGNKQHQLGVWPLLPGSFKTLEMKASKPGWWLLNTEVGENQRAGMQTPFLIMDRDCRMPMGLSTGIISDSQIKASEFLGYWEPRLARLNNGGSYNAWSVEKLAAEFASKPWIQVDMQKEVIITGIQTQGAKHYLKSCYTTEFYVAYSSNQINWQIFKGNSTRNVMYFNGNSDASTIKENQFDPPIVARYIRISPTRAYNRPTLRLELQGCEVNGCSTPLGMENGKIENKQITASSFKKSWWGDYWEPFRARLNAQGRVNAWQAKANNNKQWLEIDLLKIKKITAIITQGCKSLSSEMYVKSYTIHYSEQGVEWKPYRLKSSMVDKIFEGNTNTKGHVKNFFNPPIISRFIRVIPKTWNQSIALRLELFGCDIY

T3: FV-short-QR∗ (FV-short-QR precleaved at Arg1545 with RVV-V) (human, UniProt P12259 29-1573; P12259 1574-2224, Δ756–1458 | Arg^709 replaced with Gln)
T3 construct: coagulation factor V heavy chain joined to the shortened B-domain with AR2; coagulation factor V light chain (LC), released by cleavage at Arg1545; also called FV-short cleaved at Arg1545; source: FV-short-QR (BHK cells, purified), 300 nM incubated with 2 nM RVV-V 30 min at 37 °C
T3 sequence (looked up) 1: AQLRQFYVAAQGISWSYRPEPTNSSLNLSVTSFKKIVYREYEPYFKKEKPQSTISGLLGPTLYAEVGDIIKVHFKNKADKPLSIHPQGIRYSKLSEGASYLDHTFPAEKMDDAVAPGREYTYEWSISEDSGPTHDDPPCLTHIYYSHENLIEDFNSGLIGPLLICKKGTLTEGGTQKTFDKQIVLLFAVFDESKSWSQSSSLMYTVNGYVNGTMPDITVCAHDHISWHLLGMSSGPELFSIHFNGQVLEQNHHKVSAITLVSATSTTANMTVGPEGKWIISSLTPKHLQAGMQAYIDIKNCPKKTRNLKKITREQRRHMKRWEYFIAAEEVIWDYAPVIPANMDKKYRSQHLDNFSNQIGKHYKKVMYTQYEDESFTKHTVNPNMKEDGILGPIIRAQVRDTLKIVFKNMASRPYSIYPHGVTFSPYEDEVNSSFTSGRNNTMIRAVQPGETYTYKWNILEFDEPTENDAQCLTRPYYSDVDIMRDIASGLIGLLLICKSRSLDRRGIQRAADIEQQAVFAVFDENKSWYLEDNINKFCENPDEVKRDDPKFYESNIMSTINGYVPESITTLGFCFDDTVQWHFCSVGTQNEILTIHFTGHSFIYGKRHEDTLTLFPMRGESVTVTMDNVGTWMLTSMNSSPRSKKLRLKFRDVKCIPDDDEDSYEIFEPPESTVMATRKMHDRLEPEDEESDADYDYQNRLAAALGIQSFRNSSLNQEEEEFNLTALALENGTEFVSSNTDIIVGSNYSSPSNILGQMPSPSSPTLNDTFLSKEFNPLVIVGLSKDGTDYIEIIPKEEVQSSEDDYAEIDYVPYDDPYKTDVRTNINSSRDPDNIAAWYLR
T3 sequence (looked up) 2: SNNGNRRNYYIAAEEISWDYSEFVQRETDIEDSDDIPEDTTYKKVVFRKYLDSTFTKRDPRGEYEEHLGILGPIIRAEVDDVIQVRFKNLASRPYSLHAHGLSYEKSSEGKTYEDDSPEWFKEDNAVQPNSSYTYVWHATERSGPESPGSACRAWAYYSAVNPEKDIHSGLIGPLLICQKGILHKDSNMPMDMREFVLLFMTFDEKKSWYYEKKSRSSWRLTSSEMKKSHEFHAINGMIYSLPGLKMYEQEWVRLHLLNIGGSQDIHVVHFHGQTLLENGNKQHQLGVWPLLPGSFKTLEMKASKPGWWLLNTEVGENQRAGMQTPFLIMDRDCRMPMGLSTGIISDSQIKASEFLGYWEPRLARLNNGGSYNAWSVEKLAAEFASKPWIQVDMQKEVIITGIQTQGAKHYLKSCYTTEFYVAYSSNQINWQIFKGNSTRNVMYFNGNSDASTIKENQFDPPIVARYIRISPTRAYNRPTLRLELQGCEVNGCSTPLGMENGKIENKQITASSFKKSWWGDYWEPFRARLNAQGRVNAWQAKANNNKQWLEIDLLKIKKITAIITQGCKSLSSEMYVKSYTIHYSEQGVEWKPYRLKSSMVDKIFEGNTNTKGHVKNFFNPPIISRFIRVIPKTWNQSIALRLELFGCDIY

B1: TFPIα-BR, fragment containing the BR sequence of TFPIα (domain or fragment)
chain: KKGFIQRISKGGLIKTKRKRKKQRVKIAYEEIFVKNM
modifications: limits not printed (refs 17, 18); taken as the whole C-terminal tail after Kunitz 3 (mature 240-276); expressed in E. coli, unglycosylated
B2: OG488-TFPIα-BR, TFPIα-BR modified with Oregon Green488 maleimide (domain or fragment)
chain: {C(Oregon Green488 maleimide)}-KKGFIQRISKGGLIKTKRKRKKQRVKIAYEEIFVKNM

Legend:
Conditions in all cases: both partners purified
[1] = target: T1, FV-short-RQ∗ (FV-short-RQ precleaved at …); experiment: inhibition of prothrombinase (prothrombin activation assay); 0.1 nM cofactor species, 50 μM PCPS, 1.4 μM prothrombin, 3 μM DAPA, TFPIα-BR 0–7 μM, started with 2 nM FXa, assay buffer, 25 °C; Ki from the equation for competitive inhibition
[2] = target: T4, FV-short-QQ (FV-short with Arg709 and Arg1545 replaced with Gln) (human); experiment: as above
T4 construct: coagulation factor V, FV-short with both thrombin cleavage sites changed to Gln, not cleaved by thrombin; source: BHK cells, purified

[3] = target: T5, FV-short (factor V isoform with B-domain residues 756 to 1458 deleted) (human); experiment: as above
T5 construct: coagulation factor V, splicing isoform FV-short, single chain, lacks the BR and retains AR2; source: BHK cells, purified

[4] = target: T4, FV-short-QQ (FV-short with Arg709 and …); experiment: fluorescence polarisation; competition: unlabeled TFPIα-BR (0–2 μM) or TFPIα (0–1 μM) titrated into 25 nM OG488-TFPIα-BR, 20 nM FV-short-QQ and 50 μM PCPS, assay buffer, 25 °C; stoichiometry of 1 assumed
activated factor V (FVa) = target: T2, activated factor V (FVa); experiment: inhibition of prothrombinase (prothrombin activation assay); 0.1 nM cofactor species, 50 μM PCPS, 1.4 μM prothrombin, 3 μM DAPA, TFPIα-BR 0–7 μM, started with 2 nM FXa, assay buffer, 25 °C; Ki from the equation for competitive inhibition
[5] = target: T3, FV-short-QR∗ (FV-short-QR precleaved at …); experiment: as above
[6] = target: T1, FV-short-RQ∗ (FV-short-RQ precleaved at …); experiment: as above; remark: listed apart in the source
[7] = target: T4, FV-short-QQ (FV-short with Arg709 and …); experiment: as above; remark: listed apart in the source
[8] = target: T5, FV-short (factor V isoform with …); experiment: as above; remark: listed apart in the source
[9] = target: T1, FV-short-RQ∗ (FV-short-RQ precleaved at …); experiment: fluorescence polarisation; steady-state anisotropy; FV species (0–100 nM) titrated into 20 nM OG488-TFPIα-BR and 50 μM PCPS, assay buffer (20 mM HEPES, 0.15 M NaCl, 5 mM CaCl2, 0.1% PEG 8000, pH 7.4), 25 °C; fit to independent, noninteracting sites
[10] = target: T5, FV-short (factor V isoform with …); experiment: as above

Binder | Ki [1] | Ki [2] | Ki [3] | Kd [4] | Ki (activated factor V (FVa)) | Ki [5] | Ki [6] | Ki [7] | Ki [8] | Kd [9] | Kd [10]
B1 | 86.1 nM | 21.5 nM | 19.8 nM | 2.25 ± 0.2 nM | > 7000 nM | > 7000 nM | 83.9 nM | 23.4 nM | 23.6 nM | – | –
B2 | – | – | – | – | – | – | – | – | – | 2.16 ± 0.25 nM | 0.71 ± 0.11 nM
